Measurements taken from US20130142788A1 (published 2013).
Where two headings read alike, the source gives them in different places.

T1: recombinant mature dimeric myostatin (human and mouse (mature sequences 100% …, UniProt O08689 268-376))
T1 sequence: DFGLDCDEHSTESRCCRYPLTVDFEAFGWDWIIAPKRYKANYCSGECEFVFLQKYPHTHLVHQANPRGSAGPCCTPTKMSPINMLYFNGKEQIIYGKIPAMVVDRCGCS

T2: GDF-11 (UniProt O95390 299-407)
T2 construct: also called Growth and Differentiation Factor-11
T2 sequence (looked up): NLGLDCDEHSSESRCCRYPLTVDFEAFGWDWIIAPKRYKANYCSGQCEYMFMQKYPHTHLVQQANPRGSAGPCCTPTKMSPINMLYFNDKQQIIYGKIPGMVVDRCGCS

T3: Fc R 2a His polymorphism (UniProt P12318 34-217, limits assumed)
T3 construct: also called FcγRIIa His
T3 sequence (looked up): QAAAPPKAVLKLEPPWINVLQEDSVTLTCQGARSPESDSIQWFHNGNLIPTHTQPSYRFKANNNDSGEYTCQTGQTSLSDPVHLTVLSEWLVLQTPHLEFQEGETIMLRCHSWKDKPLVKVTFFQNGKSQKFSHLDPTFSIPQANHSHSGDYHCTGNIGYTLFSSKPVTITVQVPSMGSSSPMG

T4: Fc R 2a Arg polymorphism (UniProt P12318 34-217, limits assumed)
T4 construct: also called FcγRIIa Arg
T4 sequence (looked up): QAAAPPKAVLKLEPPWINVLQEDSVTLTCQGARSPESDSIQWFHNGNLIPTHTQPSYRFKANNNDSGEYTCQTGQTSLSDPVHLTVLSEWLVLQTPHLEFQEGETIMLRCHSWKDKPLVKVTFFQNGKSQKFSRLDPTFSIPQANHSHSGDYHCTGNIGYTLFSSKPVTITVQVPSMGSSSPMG

T5: rhBMP6 (human, UniProt P22004)
T5 construct: recombinant (rh); form not further stated; member of the growth factor panel m51, named only on the sheet
T5 sequence (looked up): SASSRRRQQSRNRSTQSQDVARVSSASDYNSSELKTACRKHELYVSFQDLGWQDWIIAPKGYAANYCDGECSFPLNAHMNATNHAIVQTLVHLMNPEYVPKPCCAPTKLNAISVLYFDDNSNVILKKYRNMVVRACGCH

T6: rhBMP9 (human, UniProt Q9UK05)
T6 construct: recombinant (rh); form not further stated; member of the growth factor panel m51, named only on the sheet
T6 sequence (looked up): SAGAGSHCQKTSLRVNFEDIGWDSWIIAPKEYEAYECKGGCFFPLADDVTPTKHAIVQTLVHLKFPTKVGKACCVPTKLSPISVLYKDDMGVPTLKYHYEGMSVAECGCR


Legend:
[1] = molecular target: T1, recombinant mature dimeric myostatin; assay: cell-based or functional assay
[2] = molecular target: T1, recombinant mature dimeric myostatin; assay: Kinexa solution phase affinity
Description: Kinexa (Sapidyne Instruments) solution phase affinity was used to determine the overall affinity for a range of anti-myostatin molecules. Myostatin beads were prepared either by adsorption (polymethylmethacrylate beads-PMMA) or amine coupling (NHS-activated sepharose beads). The range of anti-myostatin molecules studied necessitated the generation of beads coated with different concentrations of myostatin. For the solution phase portion of the assay, a fixed concentration of antibody was incubated with a broad range of myostatin concentrations and allowed to reach equilibrium by incubation at r.t. for at least 2 h before analysis proceeded. The myostatin beads were then used to determine the amount of free antibody present in the solution phase samples, by means of the free antibody binding to the myostatin bead matrix then detected using an appropriate secondary antibody (either anti-human or anti-mouse depending on the construct being tested) labelled with a fluorescent dye. The binding curves where fitted using the Kinexa Pro analysis software inherent to the machine. Multiple runs using varying starting concentrations of antibody were then compiled and analysed using the n-curve analysis software to give a more accurate determination of affinity.

[3] = molecular target: T2, GDF-11; assay: ELISA, growth factors coated at 0.5 µg/ml, H8L5 titrated
Description: An ELISA was performed to determine whether H8L5 might bind any other growth factors and especially other members of the TGF family which were known to share some homology around the proposed epitope sequence. By coating an ELISA plate with the various growth factors at 0.5 μg/ml and titrating in H8L5 under standard ELISA conditions, It was concluded that the only other factor tested to which H8L5 could bind was GDF-11 wherein the concentration required to give 50% binding was 3-fold lower than myostatin (FIG. 22).

[4] = molecular target: T3, Fc R 2a His polymorphism; assay: ProteOn XPR36 SPR, antibody immobilised, receptor 8-2048 nM, equilibrium model
Description: (§1) Binding analysis to Fc R5 and C1q was carried out using the ProteOn XPR36. The test antibodies (H8L5 and Fc-disabled H8L5) were immobilised on a GLC biosensor chip by primary amine coupling. The Fc Rs were used at 2048 nM, 512 nM, 128 nM, 32 nM and 8 nM, while C1q was used at 512 nM, 128 nM, 32 nM, 8 nM and 2 nM. A buffer injection (i.e. 0 nM) was used to double reference the binding sensorgrams. Due to the nature of the interaction (i.e. fast on/fast-off) regeneration was not required and the binding sensorgrams returned to baseline by use of a 20 min dissociation time and subsequent buffer injections. The data was fitted to the Equilibrium model inherent to the PrateOn's analysis software, using a global R-max for each receptor group and for C1q binding (i.e. Fc R 2aHis and Arg polymorphisms were analysed together and Fc R3aPhe and Val polymorphisms were analysed together, while C1q was analysed separately).

[5] = molecular target: T4, Fc R 2a Arg polymorphism; assay: as above
Description: as §1

[6] = molecular target: T7, Fc R3a Phe polymorphism (UniProt P08637 17-208, limits assumed); assay: as above
T7 construct: also called FcγRIIIa Phe
Description: as §1

[7] = molecular target: T8, Fc R3a Val polymorphism (UniProt P08637 17-208, limits assumed); assay: as above
T8 construct: also called FcγRIIIa Val
Description: as §1

[8] = molecular target: T1, recombinant mature dimeric myostatin; assay: ActRIIb neutralisation ELISA: inhibition of 2 nM biotinylated myostatin binding to coated ActRIIb
Method in brief: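 Soluble ActRIIb coated at 1 μg/ml; 2 nM biotinylated myostatin pre-incubated 30 min at 37° C with antibody dilution series, then bound to plate 1 h at 37° C. Bound myostatin detected with streptavidin-HRP, absorbance at 490 nm after acid stop.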

[9] = molecular target: T5, rhBMP6; assay: ELISA: plate coated with the growth factor at 0.5 µg/ml, H8L5 titrated; read-out % Bound
[10] = molecular target: T6, rhBMP9; assay: as above
[11] = molecular target: T1, recombinant mature dimeric myostatin; assay: cell-based or functional assay; remark: listed apart in the source
[12] = molecular target: T1, recombinant mature dimeric myostatin; assay: cell-based or functional assay; remark: listed apart in the source
[13] = molecular target: T1, recombinant mature dimeric myostatin; assay: cell-based or functional assay; remark: listed apart in the source
[14] = molecular target: T1, recombinant mature dimeric myostatin; assay: ELISA, myostatin coated at 10 ng/well
Description: 10B3 and 10B3 chimera (10B3C) bound myostatin (R&D Systems, 788-G8-010/CF) in a sandwich ELISA. Plates were coated with myostatin at 10 ng/well and blocked with Block solution (PBS, 0.1% TWEEN and 1% BSA). Following washing (PBS, 0.1% TWEEN), antibody was incubated at 37° C. for 2 hours over a dilution series and plates washed again prior to incubation at 37° C. for 1 hour with anti-mouse HRP or anti-human HRP (Dako, P0161 & Sigma, A-8400, respectively). Plates were again washed and OPD substrate (Sigma, P9187) added until colourometric reaction occurred and the reaction stopped by the addition of H₂SO₄.

[15] = molecular target: T1, recombinant mature dimeric myostatin; assay: BIAcore T100 SPR, antibody captured on protein A, myostatin analyte, all curves 1:1 model
Description: (§2) The affinity of 10B3 mouse parental and 10B3C for recombinant myostatin was assessed by BIAcore™ (surface plasmon resonance) analysis. Analysis was carried out by the use of a capture surface: anti-mouse IgG was coupled to a C1 chip by primary amine coupling for 10B3 mouse parental; and a protein A surface was created on a C1 chip by primary amine coupling for 10B3 chimera.
(§3) After capture, recombinant myostatin was passed over the surface at 64 nM, 16 nM, 4 nM, 1 nM, 0.25 nM and 0.0625 nM, with a buffer injection (i.e. 0 nM) used for double referencing. There was a regeneration step between each analyte injection, after which the new antibody capture event occurred before the next injection of myostatin. The data was analysed using both the 1:1 model and the Bivalent model inherent to the T100 machines analysis software (see Table 6). Both capture surfaces could be regenerated using 100 mM phosphoric acid, the work was carried out using HBS-EP as the running buffer and using 25° C. as the analysis temperature.

[16] = molecular target: T1, recombinant mature dimeric myostatin; assay: BIAcore T100 SPR, antibody captured on protein A, myostatin analyte, all curves Bivalent model
Description: as §2, §3

[17] = molecular target: T1, recombinant mature dimeric myostatin; assay: ActRIIb receptor neutralisation ELISA: antibody pre-incubated with 2 nM biotinylated myostatin, binding to coated ActRIIb
Description: Recombinant soluble ActRIIb (R&D Systems 339-RBB) was coated in wells of an ELISA plate at 1 μg/ml in carbonate buffer overnight at 4° C. Plates were blocked (see Block solution above at 2.3) and washed following standard ELISA protocols. In parallel, 2 nM biotinylated myostatin (in-house, as described in 1.1, biotinylated material) was pre-incubated with an antibody dilution series consisting of 10B3, 10B3C, and a negative control (IgG1 isotype control) for 2 hours at 37° C. The biotinylated myostatin:antibody reactions were then added to the ActRIIb coated plate for 1 hour at 37° C. Standard wash procedures were followed prior to addition of 1:1000 diluted streptavidin-HRP conjugate (Dako P0397) and a further 37° C. incubation for 1 hour. Plates were again washed and assayed at absorbance 490 nm following OPD substrate (Sigma) and acid stop solution treatment. Inhibition curves and IC50 values for the inhibition of myostatin activity are shown in FIG. 5 and Table 8 respectively.

T7 sequence (P08637 17-208 limits assumed): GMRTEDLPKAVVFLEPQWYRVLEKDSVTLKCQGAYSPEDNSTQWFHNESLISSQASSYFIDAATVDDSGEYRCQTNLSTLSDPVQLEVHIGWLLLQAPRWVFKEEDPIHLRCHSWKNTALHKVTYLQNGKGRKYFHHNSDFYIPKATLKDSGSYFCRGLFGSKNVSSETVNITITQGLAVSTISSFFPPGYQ
T8 sequence (P08637 17-208 F176V limits assumed): as the sequence (P08637 17-208 limits assumed) above, with F160V counted along it

IC50, myostatin responsive reporter gene neutralisation assay (A204) [1] [nM] | Kd [2] [nM] | fold lower concentration required to give 50% binding than for myostatin [3] [fold] | binding result [4] | binding result [5] | binding result [6] | binding result [7] | IC50 [8] [nM] | IC50, myostatin responsive reporter gene assay (A204 cells, luciferase) [11] [nM] | Mean IC50, A204 in vitro activity assay [12] [nM] | Mean IC50, A204 in vitro activity assay [13] [nM] | EC50 [14] [µg/mL] | Kd [15] [nM] | Kd [16] [nM] | IC50 [17] [µg/mL] | Binder | binding result [9] | binding result [10]
5 | 0.05 | 3 | binds | binds | binds | binds | 0.101 | – | – | – | – | – | – | – | H8L5 (antibody, IgG1, Humanised IgG1/kappa; also called 10B3H8L5; copies: 2 + 2) heavy: not shown light: DIQMTQSPSSLSASVGDRVTITCKASQDINSYLSWFQQKPGKAPKTLIYRANRLVDGVPSKFSGSGSGTDYTLTISSLQPEDFATYYCLQSDEFPLTFGQGTKLEIKRTVAAPSVFIFPPSDEQLKSGTASVVCLLNNFYPREAKVQWKVDNALQSGNSQESVTEQDSKDSTYSLSSTLTLSKADYEKHKVYACEVTHQGLSSPVTKSFNRGEC | no binding (tested: 10^-7 (axis prints no unit)) | no binding (tested: 10^-7 (axis prints no unit))
– | 0.548 | – | – | – | – | – | – | 6.2 | 3.53 | 3.57 | 0.049 | 0.088 | 3.6 | 0.138 | 10B3 chimera (antibody, human IgG1, V domains shown, 10B3 variable regions on human IgG1/k wild type constant regions; also called HCLC; HcLc) VH: EVQLQQSGPELVKPGASVKISCKASGYSFTGYFMHWVKQSHGNILDWIGNIYPYNGVSNYNQRFKAKATLTVDKSSSTAYMELRSLTSEDSAVYYCARRYYYGTGPADWYFDVWGTGTLVTVSS VL: DIKMTQSPSSMYASLRERVTITCKASQDINSYLSWFQQKPGKSPKTLIYRANRLVDGVPSRFSGSGSGQDYSLTISSLEYEDMGIYYCLQCDEFPLTFGAGTKLELKR | – | –
